Paper PMC8910618, “Cognate DNA Recognition by Engrailed Homeodomain Involves A Conformational Change Controlled via An Electrostatic-Spring-Loaded Latch”

Experiments:
Conditions in all cases: protein: recombinant; tags: none (untagged, or SUMO/His tag cleaved by ULP1); 15N or 13C,15N labelled for NMR; 5' overhang 1 nt on each strand, 20 bp
[1] = biological target: T1, engrailed homeodomain (enHD) (UniProt P02836 456-509); assay: NMR titration (1H-15N HSQC, A460 and A507); 300 mM NaCl, 20 mM acetate pH 4, 298 K; NMR: 200 uM enHD, 298 K, 5% D2O; 20 mM MES pH 6 + 25 mM NaCl; 20 mM acetate pH 4 + 300 or 700 mM NaCl; 25 mM phosphate pH 6.8 + 50 mM NaCl. CD: 15 uM enHD and DNA, 20 mM MES pH 6, 25 mM NaCl, room temperature
T1 sequence: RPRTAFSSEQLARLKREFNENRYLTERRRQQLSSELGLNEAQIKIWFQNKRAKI

[2] = biological target: T1, engrailed homeodomain (enHD); assay: NMR titration (1H-15N HSQC, R456 side-chain NH); 700 mM NaCl, 20 mM acetate pH 4, 298 K; NMR: 200 uM enHD, 298 K, 5% D2O; 20 mM MES pH 6 + 25 mM NaCl; 20 mM acetate pH 4 + 300 or 700 mM NaCl; 25 mM phosphate pH 6.8 + 50 mM NaCl. CD: 15 uM enHD and DNA, 20 mM MES pH 6, 25 mM NaCl, room temperature
[3] = biological target: T1, engrailed homeodomain (enHD); assay: NMR titration (1H-15N HSQC, W501 and A460); 50 mM NaCl, 25 mM phosphate pH 6.8, 298 K; stated as sub-uM, too tight to evaluate Kd; NMR: 200 uM enHD, 298 K, 5% D2O; 20 mM MES pH 6 + 25 mM NaCl; 20 mM acetate pH 4 + 300 or 700 mM NaCl; 25 mM phosphate pH 6.8 + 50 mM NaCl. CD: 15 uM enHD and DNA, 20 mM MES pH 6, 25 mM NaCl, room temperature

B1: cognate DNA (same as X-ray structure) (dsDNA)
DNA 1: TTTTGCCATGTAATTACCTAA
DNA 2: ATTAGGTAATTACATGGCAAA
- Kd [1]: 95 ± 20 µM
- Kd [2]: 170 ± 2 µM
- Kd [3]: < 1 µM
